Test results as given in patent US20230272113A1.

Target: human FLT3 on transfected CHO cells (human) (UniProt P36888)
Assay: FACS, scFv on CHO-human FLT3 cells pre-incubated with FLT3 ligand (competitor)

Binder | median [+ligand]/median [w/o ligand]*100 [%]
FL-35 (scFv) scFv: QVTLKESGPALVKPTETLTLTCTVSGFSLNNARMGVSWIRQPPGKALEWLAHIFSNDEKSYSTSLKNRLTISKDSSKTQVVLTMTNVDPVDTATYYCARIVGYGTGWYGFFDYWGQGTQVTVSSGGGGSGGGGSGGGGSDIQMTQSPSSLSASVGDRVTITCRASQDIRDDLVWYQQKPGKAPKRLIYGTSTLQSGVPSRFSGSGSGTEFTLTISSLQPEDFATYYCLQHHSYPLTFGGGTKLEIK | > 75
FL-41 (scFv) scFv: QVTLKESGPVLVKPTQTLTLTCTFSGFSLSNARMGVSWIRQPPGKCLEWLAHIFSNDEKSFSTSLKNRLTISKDTSKSQVVLTMTNMDPVDTATYYCARMVGYGSGWYAYFDYWGQGTQVTVSSGGGGSGGGGSGGGGSDIQMTQSPSSLSASVGDRVTITCRASQSISSYLNWYQQKPGKAPKLLIYAASSLQSGVPSRFSGSGSGTDFTLTISSLQPEDFATYYCLQHNSYPLTFGCGTKVEIK | > 75
FL-38 (scFv) scFv: QVTLKESGPVLVKPTETLTLTCTVSGFSFRNARMGVSWIRQPPGKALEWLAHIFSNDEKSYSTSLKSRLTISKDTSKSQVVLTLTNMDPVDTATYFCARMPEYSSGWSGAFDIWGQGTLVTVSSGGGGSGGGGSGGGGSDIQMTQSPSSLSASVGDRVTITCRASQGIRNDLGWYQQKPGKAPKRLIYAASSLQSGVPSRFSGSGSGTEFTLTISSLQPEDFATYYCLQHNSYPLTFGGGTKLEIK | > 75
FL-39 (scFv) scFv: QVTLKESGPTLVKPTETLTLTCTLSGFSLNNARMGVSWIRQPPGKCLEWLAHIFSNDEKSYSTSLKNRLTISKDSSKTQVVLTMTNVDPVDTATYYCARIVGYGSGWYGFFDYWGQGTLVTVSSGGGGSGGGGSGGGGSDIQMTQSPSSLSASVGDRVTITCRASQGIRNDLGWYQQKPGKAPKRLIYAASTLQSGVPSRFSGSGSGTEFTLTISSLQPEDFATYYCLQHNSYPLTFGCGTKVEIK | > 75

Other lines, results leading:

median [+ligand]/median [w/o ligand]*100 [%] | Binder
> 75 | FL-36 (scFv) scFv: QVTLKESGPTLVKPTETLTLTCTFSGFSLRYARMGVSWIRQPPGKALEWLAHIFSNDEKSYSTSLKSRLTISKDTSKSQVVLTLTNMDPVDTATYFCARMPEYSSGWSGAFDIWGQGTMVTVSSGGGGSGGGGSGGGGSDIQMTQSPSSLSASVGDRVTITCRASQDIRNDLAWYQQKPGKAPKRLIYAASSLQSGVPSRFSGSGSGTEFTLTISSLQPEDFATYYCLQHNSYPLTFGGGTKLEIK
> 75 | FL-37 (scFv) scFv: QVTLKESGPVLVKPTETLTLTCTVSGFSLRNIKMGVSWIRQPPGKALEWLAHIFSNDEKSYSTSLKSRLTISKDTSKSQVVLTLTNMDPVDTATYFCARMPEYSSGWSGAFDIWGQGTMVTVSSGGGGSGGGGSGGGGSDIQMTQSPSSLSASVGDRVTITCRASQDISNYLAWYQQKPGKAPKRLIYAASSLQSGVPSRFSGSGSGTEFTLTISSLQPEDFATYYCLQHNSFPLTFGGGTKLEIK
> 75 | FL-40 (scFv) scFv: QVTLKESGPTLVKPTETLTLTCTVSGFSLSNARMGVSWIRQPPGKCLEWLANIFSNDEKSYSTSLKSRLTISKGTSKSQVVLTMTNVNPVDTGTYYCARIVGYGSGWYGYFDYWGQGTLVTVSSGGGGSGGGGSGGGGSDIQMTQSPSSLSASVGDRVTITCRASQDIRNDLGWYQQKPGKAPKRLIYATSIRQSGVPSRFTGSGSGTEFTLTISGLQPEDFATYFCLQHNSFPLTFGCGTKVEIK
> 75 | FL-42 (scFv) scFv: QVTLKESGPALVKPTETLTLTCTLSGFSLNNARMAVSWIRQPPGKCLEWLAHIFSNDEKSYSTSLKSRLTISKDTSKSQVVLTMTNMDPEDTATYYCARIVGYGTGWYGFFDYWGQGILVTVSSGGGGSGGGGSGGGGSDIQMTQSPSSLSASVGDRVTITCRASQGIRNDLAWYQQKPGKAPKRLIYAASSLQSGVPSRFSGSGSGTEFTLTISSLQPEDFATYYCLQHNSYPLTFGCGTKVEIK
